US20230295310A1 (ABCELLERA BIOLOGICS, published 2023)

B1: mAb 292 (antibody, V domains shown)
VH: EVQLLESGGGLVQPGGSRRLSCAASGFTFSTYAMSWVRQAPGKGLEWVSVINGRGDDTNYADSVKGRFTISRDNSKNILFLQMNSLRAEDTAVYYCAKKYSYYYYYMDVWGKGTTVTVSS
VL: SYELTQPLSVSVALGQTARITCGGNNIGSKDVHWYQQKPGQAPVLVIYRDSNRPSGIPERFSGSNSGNTATLTISRAQAGDEADYYCQVWDSRTAVFGGGTQLTAL
notes: VH and VL only
B2: mAb 296 (antibody, V domains shown)
VH: EVQLLESGGGLVQPGGSLRLSCAASGFTFSSYAMSWVRQAPGKGLEWVSAISGSGGTTYYTDSVKGRFTISRDNSKNTLYLQMNSLRAEDTAVYYCAKKYSYYYYYMDVWGKGTTVTVSS
VL: SYELTQPLSVSVALGQTARITCGGNNIGSKNVHWYQQKPGQAPVLVIYRDSNRPSGIPERFSGSNSGNTATLTISRAQAGDEADYYCQVWDSSTAVFGGGTQLTAL
notes: VH and VL only
B3: mAb 301 (antibody, V domains shown)
VH: EVQLLESGGGLVQPGGSRRLSCAASGFTFSSYAMSWVRQAPGKGLEWVSVISGRGDNTNYADSVKGRFTISRENSKNMLYLQMNSLRAEDTAVYYCAKKYSYYYYYMDVWGKGTTVTVSS
VL: SYELTQPLSVSVALGQTARITCGGNNIGSKDVHWYQQKPGQAPVLVIYRDSNRPSGIPERFSGSNSGNTATLTISRAQAGDEADYYCQVWDSRTAVFGGGTQLTAL
notes: VH and VL only
B4: mAb 304 (antibody, V domains shown)
VH: EVQLLESGGGLVQPGGSRRLSCAASGFTFSSYAMSWVRQAPGKGLEWVSVISGRGDNTNYADSVKGRFTISRENSKNILYLQMNSLRAEDTAVYYCAKKYSYYYYYMDVWGKGTTVTVSS
VL: SYELTQPLSVSVALGQTARITCGGNNIGSKDVHWYQQKPGQAPVLVIYRDSNRPSGIPERFSGSNSGNTATLTISRAQAGDEADYYCQVWDSRTAVFGGGTQLTAL
notes: VH and VL only
B5: mAb 316 (antibody, V domains shown)
VH: EVQLLESGGGLVQPGGSRRLSCAASGFTFRTYAMSWVRQAPGKGLEWVSVINGRGDDTNYADSVKGRFTISRDNSKNILFLQMNSLRAEDTAVYYCAKKYSYYYYYMDVWGKGTTVTVSS
VL: SYELTQPLSVSVALGQTARITCGGNNIGSKDVHWYQQKPGQAPVLVIYRDSNRPSGIPERFSGSNSGNTATLTISRAQAGDEADYYCQVWDSRTAVFGGGTQLTAL
notes: VH and VL only
B6: mAb 297 (antibody, V domains shown)
VH: EVQLLESGGGLVQPGGSLRLSCAASGFTFSSYAMNWVRQAPGKGLEWVSIISGGRRDDITYYAASVKGRFTISRDNSKNTLYLQMNSLRAEDTAVYYCAKMYNYYYYYIDVWGKGTTVTVSS
VL: SYELTQPLSVSVALGQTAKITCGGNNIGSKDVHWYQQKPGQAPVLVIYRDSNRPSGIPERFSGSNSGNTATLTISRAQAGDEADYYCQVWDSNTAVFGGGTQLTAL
notes: VH and VL only
B7: mAb 303 (antibody, V domains shown)
VH: EVHLLESGGGLVQPGGSLRLSCAASGFTFSSYAMNWVRQAPGKGLEWISIISGGRRSGITYYAASVKGRFTISRDNSKNTLDLQMNSLRAEDTAVYYCAKMYNYYYYYIDVWGKGTTVTVSS
VL: SYELTQPLSVSVALGQTARITCGGNNIGSKDVHWYQQKPGQAPVLVIYRDSNRPSGIPERFSGSNSGNTATLTISRAQAGDEADYYCQVWDSNTAVFGGGTQLTAL
notes: VH and VL only
B8: mAb 300 (antibody, V domains shown)
VH: EVQLLESGGGLVQPGGSLRLSCAASGFTFSRYAMSWVRQAPGRGLEWVSTISGSGGRTYYVDSVKGRFTISRDNSKNTLYLQMNSLRAEDTAVYYCAKMFSYYYYYMDVWGKGTTVTVSS
VL: EIVMTQSPATLSLSPGKRATLSCRASQSVSTTYLSWYLQKPGQAPRLLIYGASTRATGIPARFSGSGSGTDFTLTISSLQPEDFAVYYCQQDYNLPPYTFGQGTKLEIK
notes: VH and VL only
B9: mAb 306 (antibody, V domains shown)
VH: EVQLLESGGGLVQPGGSLRLSCAASGFTFNSYAMSWVRQAPGRGLEWVSAISGRKSTTYYADSVKGRFTISRDNSKNTLYLQMNSLRAEDTAVYYCAKLWNYYYYYMDVWGKGTTVTVSS
VL: SYELTQPLSVSVALGQTARITCGGNNIGSKDVHWYQQKPGQAPVLVIYRDSNRPSGIPERFSGSNSGNTATLTISRAQAGDEADYYCQVWDSSTAVFGGGTQLTAL
notes: VH and VL only
B10: mAb 318 (antibody, V domains shown)
VH: EGQLLESGGGLVQPGGSLRLSCAASGFTFSRYAMSWIRQAPGKGLEWVSVIDGSGGDKNYADSVKGRFTISRDNSKNSLYLLMNGLRVEDTAIYFCAKKFSYYYYYMDVWGKGTSVTVSS
VL: SYELTQPLSVSVALGQTARITCGGNNIGGKDVHWYQQKPGQAPVLVIYRDSNRPSGIPERFSGSNSGNTATLTISRAQAGDEADYYCQVWDSRTAVFGGGTQLTAL
notes: VH and VL only
B11: mAb 282 (antibody, V domains shown)
VH: QVQLVQSETEVKKPGASVRVSCKASGYTFTGYYVHWVRQAPGQGLEWMGWINPKSGRTSYSQKFQDRVTMTRDTSISTVYMELSRLRSDDTAVYYCARILELIFDYWGQGTLVTVSS
VL: EIVLTQSPDFQSVTPKEKVTITCRASQSIGSSLHWYQQKPDQSPKLLIKYASQSFSGVPSRFSGSGSGTDFTLTINSLEAEDAATYYCHQSSSLPTFGPGTKVDIK
notes: VH/VL only
B12: mAb 289 (antibody, V domains shown)
VH: EVQLLESGGGLVQPGGSRRLSCAASGFTFSSFAMSWVRQAPGKGLEWVSVISSRGDNTNYADSVKGRFTISRDNSKNTLYLQMNSLRAEDTAVYYCAKKYSYYYYYMDVWGKGTTVTVSS
VL: SYELTQPLSVSVALGQTARITCGGNNIGSKNVHWHQQKPGQAPVLVIYRESNRPSGIPERFSGSNSGNTATLTSSRAQAGDEADYYCQVWDSSTAVFGGGTQLTAL
notes: VH/VL only

Tests used:
human CD3 [1] = target: T1, human CD3 (human, UniProt P07766 23-207; P04234 22-171; P09693 23-182); assay: flow cytometry, human primary T cells, 25 nM antibody
T1 construct: whole, on cells; also called CD3 on Jurkat cells; CD3 on human primary T cells
T1 sequence (P07766 23-207, chain 1 of 3): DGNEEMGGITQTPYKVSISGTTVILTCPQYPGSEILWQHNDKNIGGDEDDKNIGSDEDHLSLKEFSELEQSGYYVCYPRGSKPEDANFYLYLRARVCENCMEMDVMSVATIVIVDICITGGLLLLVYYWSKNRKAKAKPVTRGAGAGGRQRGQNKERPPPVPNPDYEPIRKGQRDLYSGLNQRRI
T1 sequence (P04234 22-171, chain 2 of 3): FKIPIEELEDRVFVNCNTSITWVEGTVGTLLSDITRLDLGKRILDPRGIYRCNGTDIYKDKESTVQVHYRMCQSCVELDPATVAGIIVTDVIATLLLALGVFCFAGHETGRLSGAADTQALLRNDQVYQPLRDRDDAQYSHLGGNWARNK
T1 sequence (P09693 23-182, chain 3 of 3): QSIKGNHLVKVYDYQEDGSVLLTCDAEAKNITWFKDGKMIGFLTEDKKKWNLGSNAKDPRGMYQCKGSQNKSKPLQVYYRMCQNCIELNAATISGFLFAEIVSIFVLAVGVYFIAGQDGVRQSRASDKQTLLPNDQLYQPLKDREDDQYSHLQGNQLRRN
Description: (§1) Purified antibodies were confirmed to bind CD3 expressed on cells using the CytoFLEX S or LX flow cytometers (Beckman Coulter). Antibodies were diluted to 25 nM in FACS buffer (PBS+2% FBS) and were incubated with CD3-expressing cells for 30 minutes at 4° C. […] The median fluorescence intensity of the binding signal for each antibody was normalized to the isotype control to obtain a fold over isotype value. An antibody with a fold over isotype (FOI) of ≥10 was considered to be positive for binding.

human CD3 [2] = target: T1, human CD3; assay: flow cytometry, Jurkat cells, 25 nM antibody
Description: as §1

cynomolgus monkey CD3 = target: T2, cynomolgus monkey CD3 (cynomolgus monkey, UniProt Q95LI5 22-198; Q95LI8 22-171; Q95LI7 23-181); assay: flow cytometry, cyno primary T cells
T2 construct: whole, on cells; CD3 on purified cynomolgus monkey CD3 pan T cells; also called cyno CD3; CD3 on cyno primary T cells
T2 sequence (Q95LI5 22-198, chain 1 of 3): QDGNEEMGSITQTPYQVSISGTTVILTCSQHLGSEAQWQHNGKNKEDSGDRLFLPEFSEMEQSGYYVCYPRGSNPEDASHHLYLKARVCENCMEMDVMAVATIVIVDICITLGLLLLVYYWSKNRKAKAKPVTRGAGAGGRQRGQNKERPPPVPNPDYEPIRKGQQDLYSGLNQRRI
T2 sequence (Q95LI8 22-171, chain 2 of 3): as the sequence (P04234 22-171, chain 2 of 3) above, with I5V, N15K, I20V, S32T, D33N, I34N, T64A, S74N, V83L, H141R counted along it
T2 sequence (Q95LI7 23-181, chain 3 of 3): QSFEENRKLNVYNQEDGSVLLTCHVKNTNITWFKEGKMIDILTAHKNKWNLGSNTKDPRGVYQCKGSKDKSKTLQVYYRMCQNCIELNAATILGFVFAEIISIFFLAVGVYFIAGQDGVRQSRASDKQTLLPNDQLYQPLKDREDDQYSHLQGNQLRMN
Procedure, shortened: (§2)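 Flow cytometric binding was measured after cells were incubated with antibody (25 nM, PBS+2% FBS) at 4° C for 30 minutes. Signals were normalized to isotype to yield FOI, with ≥10 scored positive.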

[3] = target: T3, human CD3 expressed on cells (Jurkat cells; human primary T cells) (human, UniProt P07766 23-207; P04234 22-171; P09693 23-182); assay: flow cytometry, Jurkat cells
T3 construct: whole, on cells
T3 sequence (P07766 23-207, chain 1 of 3): as the sequence (P07766 23-207, chain 1 of 3) above
T3 sequence (P04234 22-171, chain 2 of 3): as the sequence (P04234 22-171, chain 2 of 3) above
T3 sequence (P09693 23-182, chain 3 of 3): as the sequence (P09693 23-182, chain 3 of 3) above
Description: as §1

[4] = target: T4, cynomolgus monkey CD3 expressed on cyno primary T cells (cynomolgus monkey, UniProt Q95LI5 22-198; Q95LI8 22-171; Q95LI7 23-181); assay: flow cytometry, cyno primary T cells
T4 construct: whole, on cells; CD3 complex on purified cynomolgus monkey CD3 pan T cells; also called cyno CD3
T4 sequence (Q95LI5 22-198, chain 1 of 3): as the sequence (Q95LI5 22-198, chain 1 of 3) above
T4 sequence (Q95LI8 22-171, chain 2 of 3): as the sequence (P04234 22-171, chain 2 of 3) above, with I5V, N15K, I20V, S32T, D33N, I34N, T64A, S74N, V83L, H141R counted along it
T4 sequence (Q95LI7 23-181, chain 3 of 3): as the sequence (Q95LI7 23-181, chain 3 of 3) above
Procedure, shortened: as §2

Binder | Human primary T Cell Binding (FOI) (human CD3 [1]) | Jurkat Cell Binding (FOI) (human CD3 [2]) | binding result (cynomolgus monkey CD3) | binding result [3] | binding result [4]
B1 | 255 FOI | 227 FOI | no binding (tested: FOI ≥10 = positive; 25 nM) |  | 
B2 | 183 FOI | 167 FOI | no binding (tested: FOI ≥10 = positive; 25 nM) |  | 
B3 | 283 FOI | 253 FOI | no binding (tested: FOI ≥10 = positive; 25 nM) |  | 
B4 | 226 FOI | 234 FOI | no binding (tested: FOI ≥10 = positive; 25 nM) |  | 
B5 | 241 FOI | 253 FOI | no binding (tested: FOI ≥10 = positive; 25 nM) |  | 
B6 | 211 FOI | 220 FOI | no binding (tested: FOI ≥10 = positive; 25 nM) |  | 
B7 | 256 FOI | 247 FOI | no binding (tested: FOI ≥10 = positive; 25 nM) |  | 
B8 | 26.7 FOI | 68 FOI | no binding (tested: FOI ≥10 = positive; 25 nM) |  | 
B9 | 219 FOI | 216 FOI | no binding (tested: FOI ≥10 = positive; 25 nM) |  | 
B10 | 211 FOI | 211 FOI | no binding (tested: FOI ≥10 = positive; 25 nM) |  | 
B11 |  |  |  | no binding (tested: FOI <10 (FOI >=10 = positive); 25 nM) | no binding (tested: FOI <10 (FOI >=10 = positive); 25 nM)
B12 |  |  |  | no binding (tested: FOI <10 (FOI >=10 = positive); 25 nM) | no binding (tested: FOI <10 (FOI >=10 = positive); 25 nM)
